Measured values taken from IntAct's records for PubMed 20006610.

B1: Retinol dehydrogenase 12 (Homo sapiens), Q96NR8 (parent)
chain: MLVTLGLLTSFFSFLYMVAPSIRKFFAGGVCRTNVQLPGKVVVITGANTGIGKETARELASRGARVYIACRDVLKGESAASEIRVDTKNSQVLVRKLDLSDTKSIRAFAEGFLAEEKQLHILINNAGVMMCPYSKTADGFETHLGVNHLGHFLLTYLLLERLKVSAPARVVNVSSVAHHIGKIPFHDLQSEKRYSRGFAYCHSKLANVLFTRELAKRLQGTGVTTYAVHPGVVRSELVRHSSLLCLLWRLFSPFVKTAREGAQTSLHCALAEGLEPLSGKYFSDCKRTWVSPRARNNKTAERLWNVSCELLGIRWE

Variants of: B1
Details: with ubc_human UBC
With I51N the “effect of a mutation on the interaction” value was “increasing interaction”.

Variants of: B1
Details: with ubc_human UBC
Remark: another data set of the same source
For T49M, the “effect of a mutation on the interaction” value was “increasing interaction”.
